In patent US20040048327A1 (GEORGIA TECH RESEARCH, published 2004):
Numbered stars: 1 amine (or outer) side, 2 acyl side, 3 side chain; on linkers, the order of the positions; unused ones are H or OH. Square brackets hold non-standard residues; d marks the D form. Ends that are not written are not given here. * marks the point of attachment. AAsn = aza-asparagine, NC(=O)CN(N[*:1])C(=O)[*:2]; AAsp = aza-Asp, O=C(N(CC(=O)[*:3])N[*:1])[*:2]; azaAsp = O=C(N(CC(=O)[*:3])N[*:1])[*:2]; PhPr = N-terminal cap as named (PhPr); trans‑EP‑CH2CH2Ph = not defined here; azaAsn = NC(=O)CN(N[*:1])C(=O)[*:2]; Hydrocinnamoyl = O=C(CCc1ccccc1)*; (S,S)‑EP = not defined here; Cbz = O=C(OCc1ccccc1)*; NHBn = c1ccc(CN*)cc1

Assays:
Assay in all cases: cell-based or functional assay
[1] = molecular target: T1, autolytically stable caspase-1 variant (D381 E) (UniProt P29466 120-404, limits assumed)
T1 sequence (looked up): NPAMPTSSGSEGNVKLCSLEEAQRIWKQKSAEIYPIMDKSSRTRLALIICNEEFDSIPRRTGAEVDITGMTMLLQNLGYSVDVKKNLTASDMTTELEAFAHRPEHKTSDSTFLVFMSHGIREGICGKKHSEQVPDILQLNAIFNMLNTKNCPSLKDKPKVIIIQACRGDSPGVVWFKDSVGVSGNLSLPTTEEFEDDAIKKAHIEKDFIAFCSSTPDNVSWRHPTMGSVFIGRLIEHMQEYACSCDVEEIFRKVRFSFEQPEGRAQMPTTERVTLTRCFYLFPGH

caspase-3 = molecular target: T2, caspase-3 (UniProt P42574 29-277, limits assumed)
T2 sequence (looked up): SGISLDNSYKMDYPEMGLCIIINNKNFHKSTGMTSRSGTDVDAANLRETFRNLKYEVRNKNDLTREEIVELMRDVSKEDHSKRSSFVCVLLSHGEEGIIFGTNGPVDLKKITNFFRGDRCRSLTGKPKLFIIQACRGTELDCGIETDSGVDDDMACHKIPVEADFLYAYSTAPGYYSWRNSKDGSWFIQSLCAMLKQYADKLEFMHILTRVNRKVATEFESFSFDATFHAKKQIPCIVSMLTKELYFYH

[2] = molecular target: T3, schistosome legumain SmAE (Schistosoma mansoni asparaginyl endopeptidase) (Schistosoma mansoni, UniProt P09841 32-291)
T3 sequence (looked up): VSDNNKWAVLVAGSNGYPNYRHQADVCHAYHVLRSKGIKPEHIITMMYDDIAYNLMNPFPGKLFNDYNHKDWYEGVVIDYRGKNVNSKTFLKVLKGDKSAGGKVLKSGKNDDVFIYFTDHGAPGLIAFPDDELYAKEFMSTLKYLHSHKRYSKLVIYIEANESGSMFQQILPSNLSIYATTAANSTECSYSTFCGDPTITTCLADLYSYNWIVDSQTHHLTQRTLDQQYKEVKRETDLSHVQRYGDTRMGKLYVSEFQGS

Binder | k2 [1] [M⁻¹ s⁻¹] | k2 (caspase-3) [M⁻¹ s⁻¹] | IC50 [2] [nM]
PhPr-Val-Ala-[AAsp]-{(S,S)‑EP‑CO-Phe-NH2} [PhPr-Val-Ala-AAsp-(S,S)-EP-CO-Phe-NH2] | 32700 | 625 | –
Cbz-IET[azaAsp]-{(S,S)‑EP‑COOCH2Ph} [Cbz-Ile-Glu-Thr-AAsp-(S,S)-EP-COOCH2Ph] | 45800 | 9540 | –
Cbz-IET[azaAsp]-{(S,S)‑EP‑CO-Ala-NHBn} [Cbz-Ile-Glu-Thr-AAsp-(S,S)-EP-CO-Ala-NHCH2Ph] | – | 3050 | –
Cbz-Val-[azaAsp]-{(S,S)‑EP‑COOH} [Cbz-Val-AAsp-(S, S)-EP-COOH] | – | 1110 | –
Cbz-IET[azaAsp]-{(2R,3R)‑EP‑COOEt} [Cbz-Ile-Glu-Thr-AAsp-(2R,3R)-EP-COOEt] | 13300 | 2630 | –
Hydrocinnamoyl-Val-Ala-[AAsp]-{trans‑EP‑CH2CH2Ph} (reading uncertain; also: printed as PhPr-Val-Ala-AAsp-trans-EP-CH2CH2Ph) [PhPr-Val-Ala-AAsp-trans-EP-CH2CH2Ph] | 300 | – | –
Cbz-IET[azaAsp]-{(2S,3S)‑EP‑COOEt} [Cbz-Ile-Glu-Thr-AAsp-(2S, 3S)-EP-COOEt] | 12400 | 4080 | –
Hydrocinnamoyl-Val-Ala-[AAsp]-{(2R,3R)‑EP‑COOCH2Ph} [PhPr-Val-Ala-AAsp-(2R, 3R)-EP-COOCH2Ph] | 1860 | – | –
PhPr-Val-Ala-[AAsp]-{(S,S)‑EP‑CO-Ala-NHBn} [PhPr-Val-Ala-AAsp-(S,S)-EP-CO-Ala-NHCH2Ph] | 13400 | 260 | –
Hydrocinnamoyl-Val-Ala-[AAsp]-{(S,S)‑EP‑COOEt} [PhPr-Val-Ala-AAsp-(S,S)-EP-COOEt] | 32200 | 1040 | –
Cbz-Ala-Ala-[AAsn]-{(S,S)‑EP-COOCH2Ph} (reading uncertain; also: printed as Cbz-Ala-Ala-AAsn-(S, S)-EP-COOCH2Ph) [Cbz-Ala-Ala-AAsn-(S, S)-EP-COOCH2Ph] | – | – | 47
Cbz-Val-[azaAsp]-{(S,S)‑EP‑COOEt} [Cbz-Val-AAsp-(S,S)-EP-COOEt] | – | 3650 | –
PhPr-Val-Ala-[AAsp]-{(S,S)‑EP‑CONHCH2CH(OH)Ph} [PhPr-Val-Ala-AAsp-(S,S)-EP-CONHCH2CH(OH)Ph] | 12300 | 510 | –
Cbz-Val-[AAsp]-{(trans)‑EP‑CH2CH2Ph} [Cbz-Val-AAsp-(trans)-EP-CH2CH2Ph] | – | 310 | –
Hydrocinnamoyl-Val-Ala-[AAsp]-{(R,R)‑EP‑CO-Phe-NH2} [PhPr-Val-Ala-AAsp-(R,R)-EP-CO-Phe-NH2] | 330 | – | –
Hydrocinnamoyl-Val-Ala-[AAsp]-{(R,R)‑EP‑COOEt} [PhPr-Val-Ala-AAsp-(R,R)-EP-COOEt] | 6290 | – | –
Cbz-DEVD (not fully specified (residue 4, C-terminus); printed as Cbz-Asp-Glu-Val-AAsp-(2S, 3S)-EP-COOEt) [Cbz-Asp-Glu-Val-AAsp-(2S, 3S)-EP-COOEt] | 11800 | 1.07e+06 | –
Cbz-Ala-Ala-[azaAsn]-{(2R,3R)‑EP‑COOEt} [Cbz-Ala-Ala-AAsn-(2R, 3R)-EP-COOEt] | – | – | 788
Cbz-DEV[azaAsp]-{(S,S)‑EP‑COOCH2Ph} [Cbz-Asp-Glu-Val-AAsp-(S,S)-EP-COOCH2Ph] | 54700 | 1.92e+06 | –
Cbz-Glu-Val-[azaAsp]-{(R,R)‑EP‑CO-Phe-NH2} [Cbz-Glu-Val-AAsp-(R,R)-EP-CO-Phe-NH2] | 1040 | 470 | –
Cbz-Glu-Val-[azaAsp]-{(S,S)‑EP‑CONHCH2CH2Ph} [Cbz-Glu-Val-AAsp-(S,S)-EP-CONHCH2CH2Ph] | 41100 | 27300 | –

Binder | k2 [1] [M⁻¹ s⁻¹] | k2 (caspase-3) [M⁻¹ s⁻¹] | IC50 [2] [nM]
Cbz-Glu-Val-[azaAsp]-{(2S,3S)‑EP‑COOEt} [Cbz-Glu-Val-AAsp-(2S,3S)-EP-COOEt] | 58500 | 50500 | –
PhPr-Val-Ala-[AAsp]-{(S,S)‑EP‑CONHCH2CH2Ph} [PhPr-Val-Ala-AAsp-(S,S)-EP-CONHCH2CH2Ph] | 17200 | 1110 | –
Hydrocinnamoyl-Val-Ala-[AAsp]-{(R,R)‑EP‑CONHCH2CH2Ph} [PhPr-Val-Ala-AAsp-(R,R)-EP-CONHCH2CH2Ph] | 950 | – | –
PhPr-Val-Ala-[AAsp]-{(S,S)‑EP‑CO-Tyr-NH2} [PhPr-Val-Ala-AAsp-(S,S)-EP-CO-Tyr-NH2] | 3240 | 87 | –
PhPr-Val-Ala-[AAsp]-{trans‑EP‑COOCH2Ph} [PhPr-Val-Ala-AAsp-trans-EP-COOCH2Ph] | 18100 | 680 | –
Hydrocinnamoyl-Val-Ala-[AAsp]-{(S,S)‑EP‑CONHCH2Ph} [PhPr-Val-Ala-AAsp-(S,S)-EP-CONHCH2Ph] | 65900 | 1610 | –
Cbz-Val-[AAsp]-{(trans)‑EP‑Ph‑4‑Cl} [Cbz-Val-AAsp-(trans)-EP-Ph-4-Cl] | – | 145 | –
Hydrocinnamoyl-Val-Ala-[AAsp]-{(S,S)‑EP‑CONHCH2CH3} [PhPr-Val-Ala-AAsp-(S,S)-EP-CONHCH2CH3] | – | 1910 | –
PhPr-Val-Ala-[AAsp]-{(2S,3S)‑EP‑COOCH2Ph} [PhPr-Val-Ala-AAsp-(2S, 3S)-EP-COOCH2Ph] | 52100 | 1470 | –
Cbz-Ala-Ala-[AAsn]-{(S,S)‑EP-CON(nBu)2} (reading uncertain; also: printed as Cbz-Ala-Ala-AAsn-(S, S)-EP-CON(nBu)2) [Cbz-Ala-Ala-AAsn-(S, S)-EP-CON(nBu)2] | – | – | 68
Cbz-Ala-Ala-[AAsn]-{(S,S)‑EP-COOCH2CH2Ph} (reading uncertain; also: printed as Cbz-Ala-Ala-AAsn-(S, S)-EP-COOCH2CH2Ph) [Cbz-Ala-Ala-AAsn-(S, S)-EP-COOCH2CH2Ph] | – | – | 45
PhPr-Val-Ala-[AAsp]-{(S,S)‑EP‑CO-Leu-NH2} [PhPr-Val-Ala-AAsp-(S,S)-EP-CO-Leu-NH2] | 26100 | 420 | –
Cbz-DEV[azaAsp]-{(S,S)‑EP‑CONHCH2Ph} [Cbz-Asp-Glu-Val-AAsp-(S,S)-EP-CONHCH2Ph] | 25400 | 1.1e+06 | –
Hydrocinnamoyl-Val-Ala-[AAsp]-{(R,R)‑EP‑CONHCH2CH(OH)Ph} [PhPr-Val-Ala-AAsp-(R,R)-EP-CONHCH2CH(OH)Ph] | 400 | – | –
Hydrocinnamoyl-Val-Ala-[AAsp]-{(S,S)‑EP‑COOCH2CH2Ph} [PhPr-Val-Ala-AAsp-(S,S)-EP-COOCH2CH2Ph] | 56600 | 2110 | –
Cbz-DEVD (not fully specified (residue 4, C-terminus); printed as Cbz-Asp-Glu-Val-AAsp-(2R, 3R)-EP-COOEt) [Cbz-Asp-Glu-Val-AAsp-(2R, 3R)-EP-COOEt] | 4320 | 464000 | –
Cbz-DEV[azaAsp]-{(S,S)‑EP‑CO-Phe-NH2} [Cbz-Asp-Glu-Val-AAsp-(S,S)-EP-CO-Phe-NH2] | 9250 | 722000 | –
Hydrocinnamoyl-Val-Ala-[AAsp]-{(R,R)‑EP‑CONHCH2Ph} [PhPr-Val-Ala-AAsp-(R,R)-EP-CONHCH2Ph] | 1630 | – | –
Cbz-IET[azaAsp]-{(R,R)‑EP‑CONHCH2Ph} [Cbz-Ile-Glu-Thr-AAsp-(R, R)-EP-CONHCH2Ph] | 18100 | 6480 | –
Hydrocinnamoyl-Val-Ala-[AAsp]-{(R,R)‑EP‑CO-Ala-NHBn} [PhPr-Val-Ala-AAsp-(R,R)-EP-CO-Ala-NHCH2Ph] | 268 | – | –
Cbz-IET[azaAsp]-{(R,R)‑EP‑COOCH2Ph} [Cbz-Ile-Glu-Thr-AAsp-(R, R)-EP-COOCH2Ph] | 13000 | 3120 | –
